From US20140011978A1 (EPFL TTO, published 2014)

T1: TNC III1-5 (human, UniProt P24821 622-1074)
T1 construct: The secreted protein in the assays lacks the leader; also called TG-TNC III1-5; engineered TNC III1-5
T1 sequence: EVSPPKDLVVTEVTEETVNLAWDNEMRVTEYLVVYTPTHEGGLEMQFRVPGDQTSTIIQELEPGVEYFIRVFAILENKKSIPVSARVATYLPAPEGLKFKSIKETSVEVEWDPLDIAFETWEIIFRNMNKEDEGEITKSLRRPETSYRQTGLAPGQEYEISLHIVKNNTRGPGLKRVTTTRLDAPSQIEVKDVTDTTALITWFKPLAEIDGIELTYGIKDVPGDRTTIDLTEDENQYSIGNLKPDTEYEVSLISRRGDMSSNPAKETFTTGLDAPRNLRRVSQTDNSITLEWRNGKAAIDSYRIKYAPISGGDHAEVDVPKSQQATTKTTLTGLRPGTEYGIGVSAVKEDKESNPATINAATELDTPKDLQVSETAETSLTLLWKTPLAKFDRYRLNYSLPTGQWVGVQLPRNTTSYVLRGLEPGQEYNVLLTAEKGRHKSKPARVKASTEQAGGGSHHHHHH

T2: PlGF-1 (UniProt P49763-2 19-149)
T2 sequence (looked up): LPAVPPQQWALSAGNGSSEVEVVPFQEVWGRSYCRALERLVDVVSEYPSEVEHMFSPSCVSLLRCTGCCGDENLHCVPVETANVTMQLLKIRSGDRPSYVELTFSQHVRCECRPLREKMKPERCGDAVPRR

B1: TNC III3 (other, human, UniProt P24821 805-894, looked up)
GST fusion: APSQIEVKDVTDTTALITWFKPLAEIDGIELTYGIKDVPGDRTTIDLTEDENQYSIGNLKPDTEYEVSLISRRGDMSSNPAKETFTTGLD
notes: domain fragment; also called TNC III3 fused to GST
B2: FGF-4 (ligand, UniProt P08620 31-206, looked up)
chain: APTAPNGTLEAELERRWESLVALSLARLPVAAQPKEAAVQSGAGDYLLGIKRLRRLYCNVGIGFHLQALPDGRIGGAHADTRDSLLELSPVERGVVSIFGVASRFFVAMSSKGKLYGSPFFTDECTFKEILLPNNYNAYESYKYPGMFIALSKNGKTKKGNRVSPTMKVTHFLPRL
B3: BDNF (ligand, UniProt P23560 129-247, looked up)
chain: HSDPARRGELSVCDSISEWVTAADKKTAVDMSGGTVTVLEKVPVSKGQLKQYFYETKCNPMGYTKEGCRGIDKRHWNSQCRTTQSYVRALTMDSKKRIGWRFIRIDTSCVCTLTIKRGR
notes: also called brain-derived neurotrophic factor
B4: FGF-10 (ligand, UniProt O15520 38-208, looked up)
chain: QALGQDMVSPEATNSSSSSFSSPSSAGRHVRSYNHLQGDVRWRKLFSFTKYFLKIEKNGKVSGTKKENCPYSILEITSVEIGVVAVKAINSNYYLAMNKKGKLYGSKEFNNDCKLKERIEENGYNTYASFNWQHNGRQMYVALNGKGAPRRGQKTRRKNTSAHFLPMVVHS
B5: TNC III4 (other, human, UniProt P24821 895-990, looked up)
GST fusion: APRNLRRVSQTDNSITLEWRNGKAAIDSYRIKYAPISGGDHAEVDVPKSQQATTKTTLTGLRPGTEYGIGVSAVKEDKESNPATINAATELDTPKD
notes: domain fragment; also called TNC III4 fused to GST
B6: FGF-18 (ligand, UniProt O76093 28-207, looked up)
chain: EENVDFRIHVENQTRARDDVSRKQLRLYQLYSRTSGKHIQVLGRRISARGEDGDKYAQLLVETDTFGSQVRIKGKETEFYLCMNRKGKLVGKPDGTSKECVFIEKVLENNYTALMSAKYSGWYVGFTKKGRPRKGPKTRENQQDVHFMKRYPKGQPELQKPFKYTTVTKRSRRIRPTHPA
B7: BMP-2 (ligand, UniProt P12643 283-396, looked up)
chain: QAKHKQRKRLKSSCKRHPLYVDFSDVGWNDWIVAPPGYHAFYCHGECPFPLADHLNSTNHAIVQTLVNSVNSKIPKACCVPTELSAISMLYLDENEKVVLKNYQDMVVEGCGCR
B8: EGF (ligand)
chain: NSDSECPLSHDGYCLHDGVCMYIEALDKYACNCVVGYIGERCQYRDLKWWELR
B9: TNC III5 fused to GST (other, human, UniProt P24821 991-1074, looked up)
chain: LQVSETAETSLTLLWKTPLAKFDRYRLNYSLPTGQWVGVQLPRNTTSYVLRGLEPGQEYNVLLTAEKGRHKSKPARVKASTEQA
notes: domain: TNC III5; also called domain TNC III5; not shown: GST
B10: Fg β1-66 (other)
fibrinogen Bβ chain fragment: QGVNDNEEGFFSARGHRPLDKKREEAPSLRPAPPPISGGGYRARPAKAAATQKKVERKAPDAGGCG
notes: production not given
B11: VEGF-A165 (ligand, UniProt P15692-4 27-191, looked up)
chain: APMAEGGGQNHHEVVKFMDVYQRSYCHPIETLVDIFQEYPDEIEYIFKPSCVPLMRCGGCCNDEGLECVPTEESNITMQIMRIKPHQGQHIGEMSFLQHNKCECRPKKDRARQENPCGPCSERRKHLFVQDPQTCKCSCKNTDSRCKARQLELNERTCRCDKPRR
B12: FGF-6 (ligand, UniProt P10767 38-208, looked up)
chain: SPAGTRANNTLLDSRGWGTLLSRSRAGLAGEIAGVNWESGYLVGIKRQRRLYCNVGIGFHLQVLPDGRISGTHEENPYSLLEISTVERGVVSLFGVRSALFVAMNSKGRLYATPSFQEECKFRETLLPNNYNAYESDLYQGTYIALSKYGRVKRGSKVSPIMTVTHFLPRI
B13: FGF-7 (ligand, UniProt P21781 32-194, looked up)
chain: CNDMTPEQMATNVNCSSPERHTRSYDYMEGGDIRVRRLFCRTQWYLRIDKRGKVKGTQEMKNNYNIMEIRTVAVGIVAIKGVESEFYLAMNKEGKLYAKKECNEDCNFKELILENHYNTYASAKWTHNGGEMFVALNQKGIPVRGKKTKKEQKTAHFLPMAIT
B14: FGF-17 (ligand, UniProt O60258 23-216, looked up)
chain: TQGENHPSPNFNQYVRDQGAMTDQLSRRQIREYQLYSRTSGKHVQVTGRRISATAEDGNKFAKLIVETDTFGSRVRIKGAESEKYICMNKRGKLIGKPSGKSKDCVFTEIVLENNYTAFQNARHEGWFMAFTRQGRPRQASRSRQNQREAHFIKRLYQGQLPFPNHAEKQKQFEFVGSAPTRRTKRTRRPQPLT
B15: VEGF-C (ligand, UniProt P49767 112-227, looked up)
chain: AHYNTEILKSIDNEWRKTQCMPREVCIDVGKEFGVATNTFFKPPCVSVYRCGGCCNSEGLQCMNTSTSYLSKTLFEITVPLSQGPKPVTISFANHTSCRCMSKLDVYRQVHSIIRR
B16: TGF-β3 (ligand)
chain: ALDTNYCFRNLEENCCVRPLYIDFRQDLGWKWVHEPKGYYANFCSGPCPYLRSADTTHSTVLGLYNTLNPEASASPCCVPQDLEPLTILYYVGRTPKVEQLSNMVVKSCKCS
modifications: Natural form is a disulfide-linked homodimer; one protomer is given.
B17: FGF-20 (ligand)
chain: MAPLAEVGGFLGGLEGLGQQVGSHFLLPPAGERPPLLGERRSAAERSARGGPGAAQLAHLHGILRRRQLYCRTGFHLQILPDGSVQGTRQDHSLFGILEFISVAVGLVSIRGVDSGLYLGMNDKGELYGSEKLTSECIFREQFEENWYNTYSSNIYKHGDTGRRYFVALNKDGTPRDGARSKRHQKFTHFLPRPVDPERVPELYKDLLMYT
B18: PlGF-2 (ligand, UniProt P49763-3 19-170, looked up)
chain: LPAVPPQQWALSAGNGSSEVEVVPFQEVWGRSYCRALERLVDVVSEYPSEVEHMFSPSCVSLLRCTGCCGDENLHCVPVETANVTMQLLKIRSGDRPSYVELTFSQHVRCECRPLREKMKPERRRPKGRGKRRREKQRPTDCHLCGDAVPRR
B19: TGF-β2 (ligand, UniProt P61812 303-414, looked up)
chain: ALDAAYCFRNVQDNCCLRPLYIDFKRDLGWKWIHEPKGYNANFCAGACPYLWSSDTQHSRVLSLYNTINPEASASPCCVSQDLEPLTILYYIGKTPKIEQLSNMIVKSCKCS

Legend:
PDGF-BB = target: T3, PDGF-BB (UniProt P01127 82-190); experiment: ELISA: GST-fused TNC domains, GST and BSA coated, 2 nM PDGF-BB in solution, anti-PDGF-BB antibody and HRP secondary, A450
T3 construct: The name implies a homodimer of B chains
T3 sequence (P01127 82-190 limits assumed): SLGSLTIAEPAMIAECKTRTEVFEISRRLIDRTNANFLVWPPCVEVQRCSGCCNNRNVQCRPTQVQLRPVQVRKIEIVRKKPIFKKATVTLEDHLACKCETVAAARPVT
Protocol: An ELISA was performed to test the affinity of different domains present in TNC1-5 to PDGF-BB as an example cytokine that has shown to bind TNC III1-5. Domain TNC III5 was defined to be responsible for cytokine binding. Method: ELISA plates were coated with individual TNC domains fused to GST, as well as GST and BSA. Wells were blocked with BSA and then incubated with 2 nM PDGF-BB. Binding of PDGF-BB was detected using an anti-PDGF-BB antibody and then a secondary horseradish peroxidase conjugated antibody.

TNC III1-5 [1] = target: T1, TNC III1-5; experiment: ELISA: cytokine coated (50 nM), 100 nM TNC III1-5 in solution, HRP-anti-His, A450; black bars without, white bars with 4 µM heparin
Protocol: (§1) ELISA plates were coated with cytokines or BSA and further incubated with TNC III1-5 to analyze binding of TNC III1-5 to a wide variety of cytokines. […] A large amount of heparin (4 μM) impaired binding of TNC III1-5 to these cytokines. Results are depicted in FIG. 3. Method: 50 nM of cytokine was coated for (1 hr, 37° C.). After blocking with 2% BSA (1 hr, RT). 100 nM TNC III1-5 was applied in PBST (0.05% tween, 0.1% bovine serum albumin (BSA)) (1 hr, RT). TNC III1-5 was detected with horseradish peroxidase (HRP)-anti-HIS in PBST (1 hr, RT) and developed with 3,3′,5,5′-tetramethylbenzidine (TMB), a soluble colorimetric HRP […]. Addition of sulfuric acid stop solution changes the color to yellow, enabling accurate measurement of the intensity at 450 nm using a spectrophotometer or plate reader. […] Heparin (4 μM) was added to TNC III1-5 to test the effect of blocking the heparin binding site of TNC III1-5, which has been defined as domain TNC III5 (Weber, Zimmermann, et al., 1995).

TNC III1-5 [2] = target: T1, TNC III1-5; experiment: ELISA: cytokine coated (50 nM), 100 nM TNC III1-5 in solution, HRP-anti-His, A450
Protocol: as §1

FGF-6 = target: B12; experiment: ELISA: growth factor coated, Fg fragment in solution, A450 (methods analogous to Example 3)
Protocol: as §1
(§2) ELISA plates were coated with cytokines or BSA and further incubated with Fg β15-66 to analyze binding of […] to a wide variety of cytokines. […] Results are depicted in FIG. 4. Method: The methods were analogous to those used in Example 3.

PlGF-1 = target: T2, PlGF-1; experiment: as above
Protocol: as §1, §2

TGF-β3 = target: B16; experiment: as above
Protocol: as §1, §2

EGF = target: B8; experiment: as above
Protocol: as §1, §2

BSA = target: T4, BSA (bovine, UniProt P02769); experiment: ELISA: BSA coated as control, Fg fragment in solution, A450 (methods analogous to Example 3)
T4 construct: negative control; also called bovine serum albumin
T4 sequence (P02769 25-607 limits assumed): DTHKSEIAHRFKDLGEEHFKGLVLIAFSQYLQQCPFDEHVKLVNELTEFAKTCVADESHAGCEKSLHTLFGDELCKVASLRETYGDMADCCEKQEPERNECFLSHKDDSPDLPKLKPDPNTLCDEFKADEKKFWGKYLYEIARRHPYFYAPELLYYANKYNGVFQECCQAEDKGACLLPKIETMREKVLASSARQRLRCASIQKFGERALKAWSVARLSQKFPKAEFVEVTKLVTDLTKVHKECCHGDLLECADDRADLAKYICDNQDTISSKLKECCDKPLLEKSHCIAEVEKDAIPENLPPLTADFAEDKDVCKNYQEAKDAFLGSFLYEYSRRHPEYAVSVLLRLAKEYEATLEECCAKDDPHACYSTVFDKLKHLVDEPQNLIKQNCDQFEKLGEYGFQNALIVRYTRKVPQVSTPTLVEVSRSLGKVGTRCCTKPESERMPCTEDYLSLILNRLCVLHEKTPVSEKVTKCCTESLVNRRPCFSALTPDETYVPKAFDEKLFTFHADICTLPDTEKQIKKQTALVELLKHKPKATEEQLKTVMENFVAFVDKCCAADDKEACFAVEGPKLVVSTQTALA
Protocol: as §1, §2

Binder | binding result (TNC III1-5 [1]) | further results
B1 | – | binding result (PDGF-BB): no binding (tested: 2 nM PDGF-BB)
B2 | binds | –
B3 | binds | –
B4 | binds | –
B5 | – | binding result (PDGF-BB): binds
B6 | binds | –
B7 | binds | –
B8 | – | binding result (TNC III1-5 [2]): no binding (tested: 100 nM)
B9 | – | binding result (PDGF-BB): binds
B10 | – | binding result (FGF-6): no binding; binding result (PlGF-1): no binding; binding result (TGF-β3): no binding; binding result (EGF): no binding; binding result (BSA): no binding
B11 | binds | –
B12 | binds | –
B13 | binds | –
B14 | binds | –
B15 | binds | –
B16 | – | binding result (TNC III1-5 [2]): no binding (tested: 100 nM)
B17 | – | binding result (TNC III1-5 [2]): no binding (tested: 100 nM)
B18 | binds | –
B19 | binds | –
